From patent US7045613B2, “IKK-αproteins, nucleic acids and methods” (Amgen, Inc., priority 1997, dated 2006)

T1: TRAF3 (Homo sapiens, UniProt Q13114)
T1 construct: expressed in transfected cells; host or cells: 293 human embryonic kidney cells
T1 sequence (Q13114 1-568): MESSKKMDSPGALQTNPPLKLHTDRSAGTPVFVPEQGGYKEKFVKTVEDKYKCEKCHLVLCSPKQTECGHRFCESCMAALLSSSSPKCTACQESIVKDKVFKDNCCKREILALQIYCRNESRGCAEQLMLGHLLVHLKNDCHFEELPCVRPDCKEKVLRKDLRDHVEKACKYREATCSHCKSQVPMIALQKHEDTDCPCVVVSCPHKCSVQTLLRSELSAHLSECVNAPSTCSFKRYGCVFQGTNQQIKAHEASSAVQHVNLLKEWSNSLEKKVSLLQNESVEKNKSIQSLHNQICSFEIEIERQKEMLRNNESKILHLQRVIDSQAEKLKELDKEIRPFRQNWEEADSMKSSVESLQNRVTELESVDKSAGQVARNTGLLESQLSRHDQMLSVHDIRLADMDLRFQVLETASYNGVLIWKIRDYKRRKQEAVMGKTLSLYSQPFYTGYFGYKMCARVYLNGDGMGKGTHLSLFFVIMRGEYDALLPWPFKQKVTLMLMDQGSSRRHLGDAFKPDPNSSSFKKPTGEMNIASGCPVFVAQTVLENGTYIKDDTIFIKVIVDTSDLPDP


Key:
[1] = test system: NF-κB-dependent reporter gene; assay: NF-κB-dependent reporter gene assay, 293 cells; type: cell-based, human; settings: overexpression in 293 cells
From the text: (§1) To investigate a possible role for IKK-α in NF-κB activation, we examined if transient overexpression of IKK-α might activate an NF-κB-dependent reporter gene. An E-selectin-luciferase reporter construct (Schindler and Baichwal, 1994) and a IKK-α expression vector were cotransfected into HeLa cells. IKK-α expression activated the reporter gene in a dose-dependent manner, with a maximal induction of luciferase activity of about 6 to 7-fold compared to vector control. Similar results were obtained in 293 cells, where IKK-α overexpression induced reporter gene activity approximately 4-fold. […] Thus, IKK-α induces NF-κB activation when overexpressed.
Overexpression of IKK-α(307-745) blocked TNF- and IL-1-induced reporter gene activation similar to overexpression of NIK(624-947). IKK-α(307-745) was also found to inhibited NF-κB-dependent reporter gene activity elicited by overexpression of TRAF2, TRAF6 and NIK.

[2] = test system: NF-κB-dependent reporter gene; assay: E-selectin-luciferase NF-κB-dependent reporter gene assay, HeLa cells; type: cell-based, human; settings: transient overexpression in HeLa cells, compared to vector control
From the text: as §1

TRAF3 = target: T1, TRAF3; assay: Coimmunoprecipitation with HA-tagged TRAF3 in 293 cells; type: binding; settings: Flag-tagged protein coexpressed with HA-TRAF3
From the text: (§2) The interaction of IKK-α with NIK was confirmed in mammalian cell coimmunoprecipitation assays. Human IKK-α containing an N-terminal Flag epitope tag was transiently coexpressed in 293 human embryonic kidney cells with Myc epitope-tagged NIK or HA epitope-tagged TRAF proteins. Cell lysates were immunoprecipitated using a monoclonal antibody against the Flag epitope, and coprecipitating NIK or TRAF proteins were detected by immunoblot analysis with an anti-Myc or anti-HA monoclonal antibodies.

NIK = target: T2, NIK (Homo sapiens, UniProt Q99558); assay: Coimmunoprecipitation with Myc-tagged NIK in 293 cells; type: binding; settings: Flag-tagged protein coexpressed with Myc-NIK, anti-Flag immunoprecipitation
T2 construct: expressed in transfected cells; host or cells: 293 human embryonic kidney cells
From the text: as §2

TRAF2 = assay: Coimmunoprecipitation with HA-tagged TRAF2 in 293 cells; type: binding, human
From the text: as §2

T2 sequence (Q99558 whole entry): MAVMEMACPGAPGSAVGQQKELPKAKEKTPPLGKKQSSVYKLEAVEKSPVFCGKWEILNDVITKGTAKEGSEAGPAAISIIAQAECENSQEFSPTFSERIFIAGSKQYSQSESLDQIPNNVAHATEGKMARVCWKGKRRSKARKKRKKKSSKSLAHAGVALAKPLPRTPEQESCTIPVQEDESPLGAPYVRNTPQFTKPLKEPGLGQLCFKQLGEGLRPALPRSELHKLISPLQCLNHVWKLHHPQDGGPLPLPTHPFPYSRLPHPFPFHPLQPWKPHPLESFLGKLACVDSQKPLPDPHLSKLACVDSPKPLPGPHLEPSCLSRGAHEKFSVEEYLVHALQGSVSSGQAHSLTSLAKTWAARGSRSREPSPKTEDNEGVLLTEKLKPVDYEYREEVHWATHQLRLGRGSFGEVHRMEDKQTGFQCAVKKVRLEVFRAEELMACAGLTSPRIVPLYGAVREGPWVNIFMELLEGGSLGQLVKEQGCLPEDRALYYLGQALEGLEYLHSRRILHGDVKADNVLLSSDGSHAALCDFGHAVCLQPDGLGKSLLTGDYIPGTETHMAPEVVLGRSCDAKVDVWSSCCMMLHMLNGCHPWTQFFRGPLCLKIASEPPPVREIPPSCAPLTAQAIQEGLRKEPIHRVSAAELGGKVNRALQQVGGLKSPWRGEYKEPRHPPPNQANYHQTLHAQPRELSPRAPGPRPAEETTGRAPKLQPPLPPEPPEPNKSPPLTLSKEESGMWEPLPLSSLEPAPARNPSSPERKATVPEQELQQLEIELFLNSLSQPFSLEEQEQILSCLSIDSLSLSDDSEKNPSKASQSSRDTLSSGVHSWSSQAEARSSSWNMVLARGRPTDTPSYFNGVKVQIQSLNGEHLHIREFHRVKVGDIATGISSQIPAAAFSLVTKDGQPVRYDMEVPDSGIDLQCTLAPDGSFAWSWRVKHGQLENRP

Molecule	TNF- and IL-1-induced reporter gene activation [1]	maximal induction of luciferase activity [2]	association with TRAF3 (TRAF3)	coprecipitation / association with NIK (NIK)	induced reporter gene activity [1]	association with TRAF2 (TRAF2; Flag-tagged protein coexpressed with HA-TRAF2, without NIK)	coprecipitation of TRAF2 when NIK coexpressed (TRAF2; NIK coexpressed with IKK-α and TRAF2)	NF-κB-dependent reporter gene activity elicited by overexpression of TRAF2, TRAF6 and NIK [1]
NIK(624-947): kinase-inactive mutant of NIK comprising its TRAF2-interacting C-terminal domain (protein, UniProt Q99558 624-947, looked up, fragment) PLTAQAIQEGLRKEPIHRVSAAELGGKVNRALQQVGGLKSPWRGEYKEPRHPPPNQANYHQTLHAQPRELSPRAPGPRPAEETTGRAPKLQPPLPPEPPEPNKSPPLTLSKEESGMWEPLPLSSLEPAPARNPSSPERKATVPEQELQQLEIELFLNSLSQPFSLEEQEQILSCLSIDSLSLSDDSEKNPSKASQSSRDTLSSGVHSWSSQAEARSSSWNMVLARGRPTDTPSYFNGVKVQIQSLNGEHLHIREFHRVKVGDIATGISSQIPAAAFSLVTKDGQPVRYDMEVPDSGIDLQCTLAPDGSFAWSWRVKHGQLENRP	blocked	–	–	–	–	–	–	–
IKK-α: novel human IκB kinase, full conceptual translate SEQ ID NO:4 (protein) MERPPGLRPGAGGPWEMRERLGTGGFGNVCLYQHRELDLKIAIKSCRLELSTKNRERWCHEIQIMKKLNHANVVKACDVPEELNILIHDVPLLAMEYCSGGDLRKLLNKPENCCGLKESQILSLLSDIGSGIRYLHENKIIHRDLKPENIVLQDVGGKIIHKIIDLGYAKDVDQGSLCTSFVGTLQYLAPELFENKPYTATVDYWSFGTMVFECIAGYRPFLHHLQPFTWHEKIKKKDPKCIFACEEMSGEVRFSSHLPQPNSLCSLIVEPMENWLQLMLNWDPQQRGGPVDLTLKQPRCFVLMDHILNLKIVHILNMTSAKIISFLLPPDESLHSLQSRIERETGINTGSQELLSETGISLDPRKPASQCVLDGVRGCDSYMVYLFDKSKTVYEGPFASRSLSDCVNYIVQDSKIQLPIIQLRKVWAEAVHYVSGLKEDYSRLFQGQRAAMLSLLRYNANLTKMKNTLISASQQLKAKLEFFHKSIQLDLERYSEQMTYGISSEKMLKAWKEMEEKAIHYAEVGVIGYLEDQIMSLHAEIMELQKSPYGRRQGDLMESLEQRAIDLYKQLKHRPSDHSYSDSTEMVKIIVHTVQSQDRVLKELFGHLSKLLGCKQKIIDLLPKVEVALSNIKEADNTVMFMQGKRQKEIWHLLKIACTQSSARSLVGSSLEGAVTPQTSAWLPPTSAEHDHSLSCVVTPQDGETSAQMIEENLNCLGHLSTIIHEANEEQGNSMMNLDWSWLTE	–	6 to 7 fold	failed to associate	able to coprecipitate NIK	approximately 4 fold	failed to associate	strong coprecipitation	–
IKK-α(307-745): deletion mutant IKK-α protein lacking most of the N-terminal kinase domain; kinase-inactive (protein) ILNLKIVHILNMTSAKIISFLLPPDESLHSLQSRIERETGINTGSQELLSETGISLDPRKPASQCVLDGVRGCDSYMVYLFDKSKTVYEGPFASRSLSDCVNYIVQDSKIQLPIIQLRKVWAEAVHYVSGLKEDYSRLFQGQRAAMLSLLRYNANLTKMKNTLISASQQLKAKLEFFHKSIQLDLERYSEQMTYGISSEKMLKAWKEMEEKAIHYAEVGVIGYLEDQIMSLHAEIMELQKSPYGRRQGDLMESLEQRAIDLYKQLKHRPSDHSYSDSTEMVKIIVHTVQSQDRVLKELFGHLSKLLGCKQKIIDLLPKVEVALSNIKEADNTVMFMQGKRQKEIWHLLKIACTQSSARSLVGSSLEGAVTPQTSAWLPPTSAEHDHSLSCVVTPQDGETSAQMIEENLNCLGHLSTIIHEANEEQGNSMMNLDWSWLTE	blocked	–	–	able to associate with NIK	–	–	–	inhibited
